B1: Ras-related protein Rab-11A (Homo sapiens), P62491 (parent)
chain: MGTRDDEYDYLFKVVLIGDSGVGKSNLLSRFTRNEFNLESKSTIGVEFATRSIQVDGKTIKAQIWDTAGQERYRAITSAYYRGAVGALLVYDIAKHLTYENVERWLKELRDHADSNIVIMLVGNKSDLRHLRAVPTDEARAFAEKNGLSFIETSALDSTNVEAAFQTILTEIYRIVSQKQMSDRRENDMSPSNNVVPIHVPPTTENKPKVQCCQNI
partner: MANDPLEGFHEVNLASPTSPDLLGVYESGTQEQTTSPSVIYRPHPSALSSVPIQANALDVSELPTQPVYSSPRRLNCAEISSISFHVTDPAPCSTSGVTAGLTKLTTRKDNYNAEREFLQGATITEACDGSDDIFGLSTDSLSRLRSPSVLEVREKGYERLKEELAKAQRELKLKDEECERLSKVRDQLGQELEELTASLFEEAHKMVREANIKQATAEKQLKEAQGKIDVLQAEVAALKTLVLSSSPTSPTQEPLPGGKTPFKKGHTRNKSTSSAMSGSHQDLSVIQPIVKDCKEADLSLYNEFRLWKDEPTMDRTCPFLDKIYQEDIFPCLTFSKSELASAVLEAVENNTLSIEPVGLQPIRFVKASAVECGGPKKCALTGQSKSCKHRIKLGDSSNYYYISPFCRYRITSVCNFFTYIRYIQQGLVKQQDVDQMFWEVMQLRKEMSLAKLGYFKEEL

Variants of: B1
Conditions: with RAB3IP

Variant | effect of a mutation on the interaction
S25N | decreasing interaction
Q70L | increasing interaction

Reference: IntAct's records for PubMed 20308558
